Read-outs that look alike come from different tables or passages of the source.
Legend:
Experiment in all cases: cell-based or functional assay
[1] = biological target: T1, human complement Component 5 (C5) (human, UniProt P01031 19-1676, limits assumed)
[2] = biological target: T1, human complement Component 5 (C5); remark: listed apart in the source
[3] = biological target: T1, human complement Component 5 (C5); remark: listed apart in the source
[4] = biological target: T1, human complement Component 5 (C5); remark: listed apart in the source
[5] = biological target: T1, human complement Component 5 (C5); remark: listed apart in the source

T1 sequence (P01031 19-1676 limits assumed): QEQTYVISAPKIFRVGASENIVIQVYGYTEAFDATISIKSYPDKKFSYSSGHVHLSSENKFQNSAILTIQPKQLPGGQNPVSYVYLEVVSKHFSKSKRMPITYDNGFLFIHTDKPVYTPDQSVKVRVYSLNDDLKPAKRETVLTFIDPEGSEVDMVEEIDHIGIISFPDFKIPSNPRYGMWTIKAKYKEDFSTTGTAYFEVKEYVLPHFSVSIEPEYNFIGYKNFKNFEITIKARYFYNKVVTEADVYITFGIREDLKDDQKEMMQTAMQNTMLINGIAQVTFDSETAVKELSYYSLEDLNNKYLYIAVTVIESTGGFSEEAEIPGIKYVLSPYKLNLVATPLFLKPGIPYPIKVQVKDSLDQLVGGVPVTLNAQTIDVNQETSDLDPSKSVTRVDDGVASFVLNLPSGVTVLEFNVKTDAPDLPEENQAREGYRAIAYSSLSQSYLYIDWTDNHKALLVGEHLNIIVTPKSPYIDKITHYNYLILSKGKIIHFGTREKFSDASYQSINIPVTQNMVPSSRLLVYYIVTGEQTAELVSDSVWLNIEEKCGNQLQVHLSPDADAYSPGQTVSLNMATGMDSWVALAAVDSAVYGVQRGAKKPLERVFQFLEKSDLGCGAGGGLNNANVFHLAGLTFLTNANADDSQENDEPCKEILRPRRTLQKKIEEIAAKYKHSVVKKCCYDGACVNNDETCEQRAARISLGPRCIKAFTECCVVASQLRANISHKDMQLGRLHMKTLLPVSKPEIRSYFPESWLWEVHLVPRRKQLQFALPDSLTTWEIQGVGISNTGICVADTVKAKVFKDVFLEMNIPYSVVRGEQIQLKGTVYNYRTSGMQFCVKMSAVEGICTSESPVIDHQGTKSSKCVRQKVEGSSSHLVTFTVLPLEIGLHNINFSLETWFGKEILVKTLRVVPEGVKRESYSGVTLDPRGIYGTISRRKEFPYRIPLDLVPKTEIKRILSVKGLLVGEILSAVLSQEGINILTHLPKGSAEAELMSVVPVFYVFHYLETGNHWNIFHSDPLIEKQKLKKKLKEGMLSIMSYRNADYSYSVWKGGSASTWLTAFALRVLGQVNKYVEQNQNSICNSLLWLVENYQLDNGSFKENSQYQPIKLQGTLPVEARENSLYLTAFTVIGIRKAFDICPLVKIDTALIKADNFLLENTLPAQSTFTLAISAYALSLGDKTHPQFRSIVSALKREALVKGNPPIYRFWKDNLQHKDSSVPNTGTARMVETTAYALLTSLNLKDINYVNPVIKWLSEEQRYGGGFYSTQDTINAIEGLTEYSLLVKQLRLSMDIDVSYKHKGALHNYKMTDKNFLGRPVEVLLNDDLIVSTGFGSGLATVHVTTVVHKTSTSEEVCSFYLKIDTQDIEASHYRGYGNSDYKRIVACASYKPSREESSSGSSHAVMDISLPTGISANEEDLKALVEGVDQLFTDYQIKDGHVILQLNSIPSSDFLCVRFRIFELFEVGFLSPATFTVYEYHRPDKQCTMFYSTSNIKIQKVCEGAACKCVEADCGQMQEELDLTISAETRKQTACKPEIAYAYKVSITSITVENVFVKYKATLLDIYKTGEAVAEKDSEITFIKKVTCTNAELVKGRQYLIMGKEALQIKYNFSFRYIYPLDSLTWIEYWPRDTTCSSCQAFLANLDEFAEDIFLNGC

IC50 (read off the curve), % Inhibition [1] [µg/mL]	IC50 (read off the curve), OD (450nM) [3] [µg/mL]	IC50 (read off the curve), % Inhibition [4] [µg/mL]	Binder	further results
~3			H2L1-IgG (antibody, V domains shown) VH: EVQLVQSGAEVKKPGASVKVSCKASGYTFTDEYMNWVRQAPGKSLEWVGYINPNNGGADYNQKFQGRVTITVDQSASTAYMELSSLRSEDTAVYFCARLGYSNPYFDFWGQGTLVTVSS VL: DIVLTQSPDSLAVSLGERATINCKASQDVNTAVAWYQQKPDQSPKLLIYWASTRHTGVPARFTGSGSGTDYTLTISSLQAEDVAVYFCQQHHVSPWTFGGGTKVEIK	
~3			H1L2-IgG (antibody, V domains shown) VH: QVQLVQSGAEVKKPGASVKVSCKASGYTFTDEYMNWVRQAPGQSLEWMGYINPNNGGADYNQKFQGRVTMTVDQSISTAYMELSRLRSDDTAVYFCARLGYSNPYFDFWGQGTLVTVSS VL: DIVLTQSPATLSLSPGERATLSCRASQDVNTAVAWYQQKPDQSPKLLIYWASTRHTGVPARFTGSGSGTDYTLTISSLQPEDFAVYFCQQHHVSPWTFGGGTKVEIK	
			H2L2-IgG (antibody, V domains shown) VH: EVQLVQSGAEVKKPGASVKVSCKASGYTFTDEYMNWVRQAPGKSLEWVGYINPNNGGADYNQKFQGRVTITVDQSASTAYMELSSLRSEDTAVYFCARLGYSNPYFDFWGQGTLVTVSS VL: DIVLTQSPATLSLSPGERATLSCRASQDVNTAVAWYQQKPDQSPKLLIYWASTRHTGVPARFTGSGSGTDYTLTISSLQPEDFAVYFCQQHHVSPWTFGGGTKVEIK	IC50 (read off the curve), OD (450nM) [2]: ~0.7 µg/mL
	~0.5		H3L2-Fab (Fab, V domains shown) VH: QVQLVQSGAEVKKPGASVKVSCKASGYTFTDEYMNWVRQAPGQSLEWMGYINPNNGGADYNPSLKSRVTISVDQSISTAYMELSRLRSDDTAVYFCARLGYSNPYFDFWGQGTLVTVSS VL: DIVLTQSPATLSLSPGERATLSCRASQDVNTAVAWYQQKPDQSPKLLIYWASTRHTGVPARFTGSGSGTDYTLTISSLQPEDFAVYFCQQHHVSPWTFGGGTKVEIK	
			H3L2-IgG (antibody, V domains shown) VH: QVQLVQSGAEVKKPGASVKVSCKASGYTFTDEYMNWVRQAPGQSLEWMGYINPNNGGADYNPSLKSRVTISVDQSISTAYMELSRLRSDDTAVYFCARLGYSNPYFDFWGQGTLVTVSS VL: DIVLTQSPATLSLSPGERATLSCRASQDVNTAVAWYQQKPDQSPKLLIYWASTRHTGVPARFTGSGSGTDYTLTISSLQPEDFAVYFCQQHHVSPWTFGGGTKVEIK	IC50 (read off the curve), OD (450nM) [2]: ~0.8 µg/mL
	~0.5	~2	H2L1-Fab (Fab, V domains shown) VH: EVQLVQSGAEVKKPGASVKVSCKASGYTFTDEYMNWVRQAPGKSLEWVGYINPNNGGADYNQKFQGRVTITVDQSASTAYMELSSLRSEDTAVYFCARLGYSNPYFDFWGQGTLVTVSS VL: DIVLTQSPDSLAVSLGERATINCKASQDVNTAVAWYQQKPDQSPKLLIYWASTRHTGVPARFTGSGSGTDYTLTISSLQAEDVAVYFCQQHHVSPWTFGGGTKVEIK	
~3			H5L2-IgG (antibody, V domains shown) VH: QVQLKQSGAEVKKPGASVKVSCKASGYTFTDEYMNWVRQAPGKSLEWMGYINPNNGGADYNQKFQGRVTMTVDQSISTAYMELSRLRSDDTAVYFCARLGYSNPYFDFWGQGTLVTVSS VL: DIVLTQSPATLSLSPGERATLSCRASQDVNTAVAWYQQKPDQSPKLLIYWASTRHTGVPARFTGSGSGTDYTLTISSLQPEDFAVYFCQQHHVSPWTFGGGTKVEIK	IC50 (read off the curve), OD (450nM) [2]: ~0.7 µg/mL
~3			H5L3-IgG (antibody, V domains shown) VH: QVQLKQSGAEVKKPGASVKVSCKASGYTFTDEYMNWVRQAPGKSLEWMGYINPNNGGADYNQKFQGRVTMTVDQSISTAYMELSRLRSDDTAVYFCARLGYSNPYFDFWGQGTLVTVSS VL: DIVLTQSPSFLSASVGDRVTITCQASQDVNTAVAWYLQKPGKSPKLLIYWASTRHTGVPARFTGSGSGTDYTLTISSLQPEDFAVYFCQQHHVSPWTFGGGTKVEIK	
	~0.4	~2	H5L2-Fab (Fab, V domains shown) VH: QVQLKQSGAEVKKPGASVKVSCKASGYTFTDEYMNWVRQAPGKSLEWMGYINPNNGGADYNQKFQGRVTMTVDQSISTAYMELSRLRSDDTAVYFCARLGYSNPYFDFWGQGTLVTVSS VL: DIVLTQSPATLSLSPGERATLSCRASQDVNTAVAWYQQKPDQSPKLLIYWASTRHTGVPARFTGSGSGTDYTLTISSLQPEDFAVYFCQQHHVSPWTFGGGTKVEIK	
	~0.5		H2L2-Fab (Fab, V domains shown) VH: EVQLVQSGAEVKKPGASVKVSCKASGYTFTDEYMNWVRQAPGKSLEWVGYINPNNGGADYNQKFQGRVTITVDQSASTAYMELSSLRSEDTAVYFCARLGYSNPYFDFWGQGTLVTVSS VL: DIVLTQSPATLSLSPGERATLSCRASQDVNTAVAWYQQKPDQSPKLLIYWASTRHTGVPARFTGSGSGTDYTLTISSLQPEDFAVYFCQQHHVSPWTFGGGTKVEIK	
~2			H5L1-IgG (antibody, V domains shown) VH: QVQLKQSGAEVKKPGASVKVSCKASGYTFTDEYMNWVRQAPGKSLEWMGYINPNNGGADYNQKFQGRVTMTVDQSISTAYMELSRLRSDDTAVYFCARLGYSNPYFDFWGQGTLVTVSS VL: DIVLTQSPDSLAVSLGERATINCKASQDVNTAVAWYQQKPDQSPKLLIYWASTRHTGVPARFTGSGSGTDYTLTISSLQAEDVAVYFCQQHHVSPWTFGGGTKVEIK	IC50 (read off the curve), OD (450nM) [2]: ~0.5 µg/mL
			H3L1-IgG (antibody, V domains shown) VH: QVQLVQSGAEVKKPGASVKVSCKASGYTFTDEYMNWVRQAPGQSLEWMGYINPNNGGADYNPSLKSRVTISVDQSISTAYMELSRLRSDDTAVYFCARLGYSNPYFDFWGQGTLVTVSS VL: DIVLTQSPDSLAVSLGERATINCKASQDVNTAVAWYQQKPDQSPKLLIYWASTRHTGVPARFTGSGSGTDYTLTISSLQAEDVAVYFCQQHHVSPWTFGGGTKVEIK	IC50 (read off the curve), OD (450nM) [2]: ~0.7 µg/mL
~3			H1L1-IgG (antibody, V domains shown) VH: QVQLVQSGAEVKKPGASVKVSCKASGYTFTDEYMNWVRQAPGQSLEWMGYINPNNGGADYNQKFQGRVTMTVDQSISTAYMELSRLRSDDTAVYFCARLGYSNPYFDFWGQGTLVTVSS VL: DIVLTQSPDSLAVSLGERATINCKASQDVNTAVAWYQQKPDQSPKLLIYWASTRHTGVPARFTGSGSGTDYTLTISSLQAEDVAVYFCQQHHVSPWTFGGGTKVEIK	
		~2	H1L3-Fab (Fab, V domains shown) VH: QVQLVQSGAEVKKPGASVKVSCKASGYTFTDEYMNWVRQAPGQSLEWMGYINPNNGGADYNQKFQGRVTMTVDQSISTAYMELSRLRSDDTAVYFCARLGYSNPYFDFWGQGTLVTVSS VL: DIVLTQSPSFLSASVGDRVTITCQASQDVNTAVAWYLQKPGKSPKLLIYWASTRHTGVPARFTGSGSGTDYTLTISSLQPEDFAVYFCQQHHVSPWTFGGGTKVEIK	
		~2	H5L1-Fab (Fab, V domains shown) VH: QVQLKQSGAEVKKPGASVKVSCKASGYTFTDEYMNWVRQAPGKSLEWMGYINPNNGGADYNQKFQGRVTMTVDQSISTAYMELSRLRSDDTAVYFCARLGYSNPYFDFWGQGTLVTVSS VL: DIVLTQSPDSLAVSLGERATINCKASQDVNTAVAWYQQKPDQSPKLLIYWASTRHTGVPARFTGSGSGTDYTLTISSLQAEDVAVYFCQQHHVSPWTFGGGTKVEIK	
	~0.4	~2	H1L2-Fab (Fab, V domains shown) VH: QVQLVQSGAEVKKPGASVKVSCKASGYTFTDEYMNWVRQAPGQSLEWMGYINPNNGGADYNQKFQGRVTMTVDQSISTAYMELSRLRSDDTAVYFCARLGYSNPYFDFWGQGTLVTVSS VL: DIVLTQSPATLSLSPGERATLSCRASQDVNTAVAWYQQKPDQSPKLLIYWASTRHTGVPARFTGSGSGTDYTLTISSLQPEDFAVYFCQQHHVSPWTFGGGTKVEIK	
	~0.5		H3L1-Fab (Fab, V domains shown) VH: QVQLVQSGAEVKKPGASVKVSCKASGYTFTDEYMNWVRQAPGQSLEWMGYINPNNGGADYNPSLKSRVTISVDQSISTAYMELSRLRSDDTAVYFCARLGYSNPYFDFWGQGTLVTVSS VL: DIVLTQSPDSLAVSLGERATINCKASQDVNTAVAWYQQKPDQSPKLLIYWASTRHTGVPARFTGSGSGTDYTLTISSLQAEDVAVYFCQQHHVSPWTFGGGTKVEIK	
	~0.3	~2	H1L1-Fab (Fab, V domains shown) VH: QVQLVQSGAEVKKPGASVKVSCKASGYTFTDEYMNWVRQAPGQSLEWMGYINPNNGGADYNQKFQGRVTMTVDQSISTAYMELSRLRSDDTAVYFCARLGYSNPYFDFWGQGTLVTVSS VL: DIVLTQSPDSLAVSLGERATINCKASQDVNTAVAWYQQKPDQSPKLLIYWASTRHTGVPARFTGSGSGTDYTLTISSLQAEDVAVYFCQQHHVSPWTFGGGTKVEIK	
			H3L4-IgG (antibody, V domains shown) VH: QVQLVQSGAEVKKPGASVKVSCKASGYTFTDEYMNWVRQAPGQSLEWMGYINPNNGGADYNPSLKSRVTISVDQSISTAYMELSRLRSDDTAVYFCARLGYSNPYFDFWGQGTLVTVSS VL: DIVLTQSPATLSLSPGERATLSCRASQDVNTAVAWYQQKPGKSPKLLIYWASTRHTGVPARFTGSGSGTDYTLTISSLQPEDFAVYFCQQHHVSPWTFGGGTKVEIK	IC50 (read off the curve), OD (450nM) [5]: ~0.8 µg/mL
			H3L3-IgG (antibody, V domains shown) VH: QVQLVQSGAEVKKPGASVKVSCKASGYTFTDEYMNWVRQAPGQSLEWMGYINPNNGGADYNPSLKSRVTISVDQSISTAYMELSRLRSDDTAVYFCARLGYSNPYFDFWGQGTLVTVSS VL: DIVLTQSPSFLSASVGDRVTITCQASQDVNTAVAWYLQKPGKSPKLLIYWASTRHTGVPARFTGSGSGTDYTLTISSLQPEDFAVYFCQQHHVSPWTFGGGTKVEIK	IC50 (read off the curve), OD (450nM) [5]: ~0.8 µg/mL

From US20250304667A1 (ALLERGAN, published 2025)
